Measured values as given in ChEMBL document CHEMBL4414660, “Effect of Modifier Structure on the Activation of Leukotriene A4 Hydrolase Aminopeptidase Activity” (J Med Chem, 2019).

Tests used:
[1] = molecular target: T1, Leukotriene A-4 hydrolase (Homo sapiens, UniProt P09960); experiment: (§1) Activation of N-terminal (His)6 and Xpress-tagged LTA4H (unknown origin) expressed in Escherichia coli BL21(DE3) cells assessed as increase in aminopeptidase activity by measuring p-nitroanilide release using L-Alanine-p-nitroanilide incubated for 10 mins by UV plate reader based assay
T1 sequence (P09960 whole entry): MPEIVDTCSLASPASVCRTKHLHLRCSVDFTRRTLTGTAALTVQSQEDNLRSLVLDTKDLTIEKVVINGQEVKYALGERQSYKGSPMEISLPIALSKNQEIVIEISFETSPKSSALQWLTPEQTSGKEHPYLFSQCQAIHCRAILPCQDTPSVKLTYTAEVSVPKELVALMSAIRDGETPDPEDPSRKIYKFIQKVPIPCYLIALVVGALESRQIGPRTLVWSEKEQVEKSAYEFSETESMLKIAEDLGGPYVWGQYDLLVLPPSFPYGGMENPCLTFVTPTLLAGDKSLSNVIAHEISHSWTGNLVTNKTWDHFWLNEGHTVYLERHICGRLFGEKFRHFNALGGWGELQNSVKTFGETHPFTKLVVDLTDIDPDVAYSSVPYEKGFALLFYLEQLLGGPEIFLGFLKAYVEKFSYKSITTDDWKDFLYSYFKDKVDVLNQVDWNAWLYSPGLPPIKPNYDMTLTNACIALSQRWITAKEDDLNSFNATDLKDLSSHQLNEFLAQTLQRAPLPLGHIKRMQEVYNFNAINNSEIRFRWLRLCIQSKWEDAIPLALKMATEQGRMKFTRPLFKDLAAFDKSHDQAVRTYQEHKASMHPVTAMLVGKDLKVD

[2] = compound: COc1ccc(Cc2ccc(-c3csc(N)n3)cc2)cc1; experiment: as §1, with “measuring Kcat for” for “measuring”, “release at 0.1 uM” for “release”; conditions: Homo sapiens
[3] = compound: COc1ccc(Cc2ccccc2)cc1; experiment: as above; conditions: Homo sapiens
[4] = compound: Cc1ccc(Cc2ccc(-c3csc(N)n3)cc2)cc1; experiment: as above; conditions: Homo sapiens
[5] = compound: Nc1nc(-c2ccc(Cc3ccc(C(F)(F)F)cc3)cc2)cs1; experiment: as above; conditions: Homo sapiens
[6] = compound: Nc1nc(-c2ccc(Cc3ccccc3)cc2)cs1; experiment: as above; conditions: Homo sapiens
[7] = compound: COc1ccc(Cc2ccc(-c3csc(N)n3)cc2)cc1; experiment: as §1, with “measuring Kcat for” for “measuring”, “release at 0.5 uM” for “release”; conditions: Homo sapiens
[8] = compound: COc1ccc(Cc2ccccc2)cc1; experiment: as above; conditions: Homo sapiens
[9] = compound: Cc1ccc(Cc2ccc(-c3csc(N)n3)cc2)cc1; experiment: as above; conditions: Homo sapiens
[10] = compound: Nc1nc(-c2ccc(Cc3ccc(C(F)(F)F)cc3)cc2)cs1; experiment: as above; conditions: Homo sapiens
[11] = compound: Nc1nc(-c2ccc(Cc3ccccc3)cc2)cs1; experiment: as above; conditions: Homo sapiens
[12] = compound: COc1ccc(Cc2ccc(-c3csc(N)n3)cc2)cc1; experiment: as §1, with “measuring Kcat for” for “measuring”, “release at 1 uM” for “release”; conditions: Homo sapiens
[13] = compound: COc1ccc(Cc2ccccc2)cc1; experiment: as above; conditions: Homo sapiens
[14] = compound: Cc1ccc(Cc2ccc(-c3csc(N)n3)cc2)cc1; experiment: as above; conditions: Homo sapiens
[15] = compound: Nc1nc(-c2ccc(Cc3ccc(C(F)(F)F)cc3)cc2)cs1; experiment: as above; conditions: Homo sapiens
[16] = compound: Nc1nc(-c2ccc(Cc3ccccc3)cc2)cs1; experiment: as above; conditions: Homo sapiens
[17] = compound: COc1ccc(Cc2ccc(-c3csc(N)n3)cc2)cc1; experiment: as §1, with “measuring Kcat for” for “measuring”, “release at 5 uM” for “release”; conditions: Homo sapiens
[18] = compound: COc1ccc(Cc2ccccc2)cc1; experiment: as above; conditions: Homo sapiens
[19] = compound: Cc1ccc(Cc2ccc(-c3csc(N)n3)cc2)cc1; experiment: as above; conditions: Homo sapiens
[20] = compound: Nc1nc(-c2ccc(Cc3ccc(C(F)(F)F)cc3)cc2)cs1; experiment: as above; conditions: Homo sapiens
[21] = compound: Nc1nc(-c2ccc(Cc3ccccc3)cc2)cs1; experiment: as above; conditions: Homo sapiens
[22] = compound: COc1ccc(Cc2ccc(-c3csc(N)n3)cc2)cc1; experiment: as §1, with “measuring Kcat for” for “measuring”, “release at 10 uM” for “release”; conditions: Homo sapiens
[23] = compound: COc1ccc(Cc2ccccc2)cc1; experiment: as above; conditions: Homo sapiens
[24] = compound: Cc1ccc(Cc2ccc(-c3csc(N)n3)cc2)cc1; experiment: as above; conditions: Homo sapiens
[25] = compound: Nc1nc(-c2ccc(Cc3ccc(C(F)(F)F)cc3)cc2)cs1; experiment: as above; conditions: Homo sapiens
[26] = compound: Nc1nc(-c2ccc(Cc3ccccc3)cc2)cs1; experiment: as above; conditions: Homo sapiens
[27] = compound: COc1ccc(Cc2ccc(-c3csc(N)n3)cc2)cc1; experiment: as §1, with “measuring Km for” for “measuring”, “release at 0.1 uM” for “release”; conditions: Homo sapiens
[28] = compound: COc1ccc(Cc2ccccc2)cc1; experiment: as above; conditions: Homo sapiens
[29] = compound: Cc1ccc(Cc2ccc(-c3csc(N)n3)cc2)cc1; experiment: as above; conditions: Homo sapiens
[30] = compound: Nc1nc(-c2ccc(Cc3ccc(C(F)(F)F)cc3)cc2)cs1; experiment: as above; conditions: Homo sapiens
[31] = compound: Nc1nc(-c2ccc(Cc3ccccc3)cc2)cs1; experiment: as above; conditions: Homo sapiens
[32] = compound: COc1ccc(Cc2ccc(-c3csc(N)n3)cc2)cc1; experiment: as §1, with “measuring Km for” for “measuring”, “release at 0.5 uM” for “release”; conditions: Homo sapiens
[33] = compound: COc1ccc(Cc2ccccc2)cc1; experiment: as above; conditions: Homo sapiens
[34] = compound: Cc1ccc(Cc2ccc(-c3csc(N)n3)cc2)cc1; experiment: as above; conditions: Homo sapiens
[35] = compound: Nc1nc(-c2ccc(Cc3ccc(C(F)(F)F)cc3)cc2)cs1; experiment: as above; conditions: Homo sapiens
[36] = compound: Nc1nc(-c2ccc(Cc3ccccc3)cc2)cs1; experiment: as above; conditions: Homo sapiens
[37] = compound: COc1ccc(Cc2ccc(-c3csc(N)n3)cc2)cc1; experiment: as §1, with “measuring Km for” for “measuring”, “release at 1 uM” for “release”; conditions: Homo sapiens
[38] = compound: COc1ccc(Cc2ccccc2)cc1; experiment: as above; conditions: Homo sapiens
[39] = compound: Cc1ccc(Cc2ccc(-c3csc(N)n3)cc2)cc1; experiment: as above; conditions: Homo sapiens
[40] = compound: Nc1nc(-c2ccc(Cc3ccc(C(F)(F)F)cc3)cc2)cs1; experiment: as above; conditions: Homo sapiens
[41] = compound: Nc1nc(-c2ccc(Cc3ccccc3)cc2)cs1; experiment: as above; conditions: Homo sapiens
[42] = compound: COc1ccc(Cc2ccc(-c3csc(N)n3)cc2)cc1; experiment: as §1, with “measuring Km for” for “measuring”, “release at 5 uM” for “release”; conditions: Homo sapiens
[43] = compound: COc1ccc(Cc2ccccc2)cc1; experiment: as above; conditions: Homo sapiens
[44] = compound: Cc1ccc(Cc2ccc(-c3csc(N)n3)cc2)cc1; experiment: as above; conditions: Homo sapiens
[45] = compound: Nc1nc(-c2ccc(Cc3ccc(C(F)(F)F)cc3)cc2)cs1; experiment: as above; conditions: Homo sapiens
[46] = compound: Nc1nc(-c2ccc(Cc3ccccc3)cc2)cs1; experiment: as above; conditions: Homo sapiens
[47] = compound: COc1ccc(Cc2ccc(-c3csc(N)n3)cc2)cc1; experiment: as §1, with “measuring Km for” for “measuring”, “release at 10 uM” for “release”; conditions: Homo sapiens
[48] = compound: COc1ccc(Cc2ccccc2)cc1; experiment: as above; conditions: Homo sapiens
[49] = compound: Cc1ccc(Cc2ccc(-c3csc(N)n3)cc2)cc1; experiment: as above; conditions: Homo sapiens
[50] = compound: Nc1nc(-c2ccc(Cc3ccc(C(F)(F)F)cc3)cc2)cs1; experiment: as above; conditions: Homo sapiens
[51] = compound: Nc1nc(-c2ccc(Cc3ccccc3)cc2)cs1; experiment: as above; conditions: Homo sapiens
[52] = compound: COc1ccc(Cc2ccc(-c3csc(N)n3)cc2)cc1; experiment: as §1, with “measuring Kcat/Km ratio for” for “measuring”, “release at 0.1 uM” for “release”; conditions: Homo sapiens
[53] = compound: COc1ccc(Cc2ccccc2)cc1; experiment: as above; conditions: Homo sapiens
[54] = compound: Cc1ccc(Cc2ccc(-c3csc(N)n3)cc2)cc1; experiment: as above; conditions: Homo sapiens
[55] = compound: Nc1nc(-c2ccc(Cc3ccc(C(F)(F)F)cc3)cc2)cs1; experiment: as above; conditions: Homo sapiens
[56] = compound: Nc1nc(-c2ccc(Cc3ccccc3)cc2)cs1; experiment: as above; conditions: Homo sapiens
[57] = compound: COc1ccc(Cc2ccc(-c3csc(N)n3)cc2)cc1; experiment: as §1, with “measuring Kcat/Km ratio for” for “measuring”, “release at 0.5 uM” for “release”; conditions: Homo sapiens
[58] = compound: COc1ccc(Cc2ccccc2)cc1; experiment: as above; conditions: Homo sapiens
[59] = compound: Cc1ccc(Cc2ccc(-c3csc(N)n3)cc2)cc1; experiment: as above; conditions: Homo sapiens
[60] = compound: Nc1nc(-c2ccc(Cc3ccc(C(F)(F)F)cc3)cc2)cs1; experiment: as above; conditions: Homo sapiens
[61] = compound: Nc1nc(-c2ccc(Cc3ccccc3)cc2)cs1; experiment: as above; conditions: Homo sapiens
[62] = compound: COc1ccc(Cc2ccc(-c3csc(N)n3)cc2)cc1; experiment: as §1, with “measuring Kcat/Km ratio for” for “measuring”, “release at 1 uM” for “release”; conditions: Homo sapiens
[63] = compound: COc1ccc(Cc2ccccc2)cc1; experiment: as above; conditions: Homo sapiens
[64] = compound: Cc1ccc(Cc2ccc(-c3csc(N)n3)cc2)cc1; experiment: as above; conditions: Homo sapiens
[65] = compound: Nc1nc(-c2ccc(Cc3ccc(C(F)(F)F)cc3)cc2)cs1; experiment: as above; conditions: Homo sapiens
[66] = compound: Nc1nc(-c2ccc(Cc3ccccc3)cc2)cs1; experiment: as above; conditions: Homo sapiens
[67] = compound: COc1ccc(Cc2ccc(-c3csc(N)n3)cc2)cc1; experiment: as §1, with “measuring Kcat/Km ratio for” for “measuring”, “release at 5 uM” for “release”; conditions: Homo sapiens
[68] = compound: COc1ccc(Cc2ccccc2)cc1; experiment: as above; conditions: Homo sapiens
[69] = compound: Cc1ccc(Cc2ccc(-c3csc(N)n3)cc2)cc1; experiment: as above; conditions: Homo sapiens
[70] = compound: Nc1nc(-c2ccc(Cc3ccc(C(F)(F)F)cc3)cc2)cs1; experiment: as above; conditions: Homo sapiens
[71] = compound: Nc1nc(-c2ccc(Cc3ccccc3)cc2)cs1; experiment: as above; conditions: Homo sapiens
[72] = compound: COc1ccc(Cc2ccc(-c3csc(N)n3)cc2)cc1; experiment: as §1, with “measuring Kcat/Km ratio for” for “measuring”, “release at 10 uM” for “release”; conditions: Homo sapiens
[73] = compound: COc1ccc(Cc2ccccc2)cc1; experiment: as above; conditions: Homo sapiens
[74] = compound: Cc1ccc(Cc2ccc(-c3csc(N)n3)cc2)cc1; experiment: as above; conditions: Homo sapiens
[75] = compound: Nc1nc(-c2ccc(Cc3ccc(C(F)(F)F)cc3)cc2)cs1; experiment: as above; conditions: Homo sapiens
[76] = compound: Nc1nc(-c2ccc(Cc3ccccc3)cc2)cs1; experiment: as above; conditions: Homo sapiens

Q: With COc1cccc(Cc2ccc(-c3csc(N)n3)cc2)c1 as the molecule, how does the AC50 [1] read?
A: 5.92 µM

B1: Leukotriene A-4 hydrolase (Homo sapiens), P09960 (protein)
chain: T1 sequence (P09960 whole entry)
Q: What does the source list for B1?
A: kcat [2]: 9.98 s⁻¹; kcat [3]: 3.01 s⁻¹; kcat [4]: 21.1 s⁻¹; kcat [5]: 1.91 s⁻¹; kcat [6]: 9.63 s⁻¹; kcat [7]: 25.9 s⁻¹; kcat [8]: 5.54 s⁻¹; kcat [9]: 31.3 s⁻¹; kcat [10]: 5.09 s⁻¹; kcat [11]: 21.1 s⁻¹; kcat [12]: 32 s⁻¹; kcat [13]: 8.68 s⁻¹; kcat [14]: 32.5 s⁻¹; kcat [15]: 8.23 s⁻¹; kcat [16]: 31.9 s⁻¹; kcat [17]: 45.2 s⁻¹; kcat [18]: 23.9 s⁻¹; kcat [19]: 34.3 s⁻¹; kcat [20]: 20.9 s⁻¹; kcat [21]: 42.2 s⁻¹; kcat [22]: 44.1 s⁻¹; kcat [23]: 30.3 s⁻¹; kcat [24]: 35.6 s⁻¹; kcat [25]: 23.2 s⁻¹; kcat [26]: 39.6 s⁻¹; Km [27]: 2.05 mM; Km [28]: 0.98 mM; Km [29]: 3.3 mM; Km [30]: 2.27 mM; Km [31]: 2.17 mM; Km [32]: 4.18 mM; Km [33]: 0.91 mM; Km [34]: 3.11 mM; Km [35]: 4.21 mM; Km [36]: 2.99 mM; Km [37]: 4.75 mM; Km [38]: 1.03 mM; Km [39]: 2.87 mM; Km [40]: 5.94 mM; Km [41]: 4.04 mM; Km [42]: 6.77 mM; Km [43]: 1.52 mM; Km [44]: 2.92 mM; Km [45]: 10.3 mM; Km [46]: 4.72 mM; Km [47]: 6.6 mM; Km [48]: 1.75 mM; Km [49]: 3.12 mM; Km [50]: 10.1 mM; Km [51]: 4.03 mM; kcat/Km [52]: 4870 M⁻¹ s⁻¹; kcat/Km [53]: 3070 M⁻¹ s⁻¹; kcat/Km [54]: 6380 M⁻¹ s⁻¹; kcat/Km [55]: 840 M⁻¹ s⁻¹; kcat/Km [56]: 4440 M⁻¹ s⁻¹; kcat/Km [57]: 6180 M⁻¹ s⁻¹; kcat/Km [58]: 6060 M⁻¹ s⁻¹; kcat/Km [59]: 10100 M⁻¹ s⁻¹; kcat/Km [60]: 1210 M⁻¹ s⁻¹; kcat/Km [61]: 7070 M⁻¹ s⁻¹; kcat/Km [62]: 6740 M⁻¹ s⁻¹; kcat/Km [63]: 8460 M⁻¹ s⁻¹; kcat/Km [64]: 11300 M⁻¹ s⁻¹; kcat/Km [65]: 1390 M⁻¹ s⁻¹; kcat/Km [66]: 7890 M⁻¹ s⁻¹; kcat/Km [67]: 6680 M⁻¹ s⁻¹; kcat/Km [68]: 15700 M⁻¹ s⁻¹; kcat/Km [69]: 11700 M⁻¹ s⁻¹; kcat/Km [70]: 2030 M⁻¹ s⁻¹; kcat/Km [71]: 8940 M⁻¹ s⁻¹; kcat/Km [72]: 6680 M⁻¹ s⁻¹; kcat/Km [73]: 17300 M⁻¹ s⁻¹; kcat/Km [74]: 11400 M⁻¹ s⁻¹; kcat/Km [75]: 2300 M⁻¹ s⁻¹; kcat/Km [76]: 9810 M⁻¹ s⁻¹
